In patent US20180155406A1 (Sanofi, published 2018):
Numbered stars: 1 amine (or outer) side, 2 acyl side, 3 side chain; on linkers, the order of the positions; unused ones are H or OH. Square brackets hold non-standard residues; d marks the D form. Side chains are listed from the residue outwards. Ends that are not written are not given here. * marks the point of attachment. γGlu = O=C(O)[C@H](CCC(=O)[*:2])N[*:1]; Palmitoyl = CCCCCCCCCCCCCCCC(=O)*; Aib = CC(C)(N)C(=O)O

T1: human GIP receptor (human, UniProt P48546 22-466)
T1 sequence (looked up): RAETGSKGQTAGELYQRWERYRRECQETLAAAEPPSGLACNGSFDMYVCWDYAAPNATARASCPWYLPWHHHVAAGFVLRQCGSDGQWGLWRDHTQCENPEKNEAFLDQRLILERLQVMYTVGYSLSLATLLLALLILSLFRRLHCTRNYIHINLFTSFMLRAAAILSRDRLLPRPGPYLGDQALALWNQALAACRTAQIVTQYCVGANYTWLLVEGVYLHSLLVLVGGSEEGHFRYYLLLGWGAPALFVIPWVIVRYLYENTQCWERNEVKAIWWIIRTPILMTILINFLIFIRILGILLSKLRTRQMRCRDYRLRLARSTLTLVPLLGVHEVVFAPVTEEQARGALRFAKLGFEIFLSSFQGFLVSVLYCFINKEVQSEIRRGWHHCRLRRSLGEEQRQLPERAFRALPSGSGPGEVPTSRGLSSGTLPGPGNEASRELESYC

B1: SEQ ID NO: 20 (peptide)
peptide: H[Aib]HGTFTSDLSKLK([γGlu-Palmitoyl])EEQRQKEFIEWLKAGGPPS[Aib]KPPPK-NH2
modifications: N-terminus assumed
SMILES: CCCCCCCCCCCCCCCC(=O)N[C@@H](CCC(=O)NCCCC[C@H](NC(=O)[C@H](CC(C)C)NC(=O)[C@H](CCCCN)NC(=O)[C@H](CO)NC(=O)[C@H](CC(C)C)NC(=O)[C@H](CC(=O)O)NC(=O)[C@H](CO)NC(=O)[C@@H](NC(=O)[C@H](Cc1ccccc1)NC(=O)[C@@H](NC(=O)CNC(=O)[C@H](Cc1c[nH]cn1)NC(=O)C(C)(C)NC(=O)[C@@H](N)Cc1c[nH]cn1)[C@@H](C)O)[C@@H](C)O)C(=O)N[C@@H](CCC(=O)O)C(=O)N[C@@H](CCC(=O)O)C(=O)N[C@@H](CCC(N)=O)C(=O)N[C@@H](CCCNC(=N)N)C(=O)N[C@@H](CCC(N)=O)C(=O)N[C@@H](CCCCN)C(=O)N[C@@H](CCC(=O)O)C(=O)N[C@@H](Cc1ccccc1)C(=O)N[C@H](C(=O)N[C@@H](CCC(=O)O)C(=O)N[C@@H](Cc1c[nH]c2ccccc12)C(=O)N[C@@H](CC(C)C)C(=O)N[C@@H](CCCCN)C(=O)N[C@@H](C)C(=O)NCC(=O)NCC(=O)N1CCC[C@H]1C(=O)N1CCC[C@H]1C(=O)N[C@@H](CO)C(=O)NC(C)(C)C(=O)N[C@@H](CCCCN)C(=O)N1CCC[C@H]1C(=O)N1CCC[C@H]1C(=O)N1CCC[C@H]1C(=O)N[C@@H](CCCCN)C(N)=O)[C@@H](C)CC)C(=O)O
B2: SEQ ID NO: 6 (peptide)
peptide: H[Aib]HGTFTSDLSKLK([γGlu-γGlu-Palmitoyl])EEQRQKEFIEWLKAGGHPS[Aib]KPPPK-NH2
modifications: N-terminus assumed
SMILES: CCCCCCCCCCCCCCCC(=O)N[C@@H](CCC(=O)N[C@@H](CCC(=O)NCCCC[C@H](NC(=O)[C@H](CC(C)C)NC(=O)[C@H](CCCCN)NC(=O)[C@H](CO)NC(=O)[C@H](CC(C)C)NC(=O)[C@H](CC(=O)O)NC(=O)[C@H](CO)NC(=O)[C@@H](NC(=O)[C@H](Cc1ccccc1)NC(=O)[C@@H](NC(=O)CNC(=O)[C@H](Cc1c[nH]cn1)NC(=O)C(C)(C)NC(=O)[C@@H](N)Cc1c[nH]cn1)[C@@H](C)O)[C@@H](C)O)C(=O)N[C@@H](CCC(=O)O)C(=O)N[C@@H](CCC(=O)O)C(=O)N[C@@H](CCC(N)=O)C(=O)N[C@@H](CCCNC(=N)N)C(=O)N[C@@H](CCC(N)=O)C(=O)N[C@@H](CCCCN)C(=O)N[C@@H](CCC(=O)O)C(=O)N[C@@H](Cc1ccccc1)C(=O)N[C@H](C(=O)N[C@@H](CCC(=O)O)C(=O)N[C@@H](Cc1c[nH]c2ccccc12)C(=O)N[C@@H](CC(C)C)C(=O)N[C@@H](CCCCN)C(=O)N[C@@H](C)C(=O)NCC(=O)NCC(=O)N[C@@H](Cc1c[nH]cn1)C(=O)N1CCC[C@H]1C(=O)N[C@@H](CO)C(=O)NC(C)(C)C(=O)N[C@@H](CCCCN)C(=O)N1CCC[C@H]1C(=O)N1CCC[C@H]1C(=O)N1CCC[C@H]1C(=O)N[C@@H](CCCCN)C(N)=O)[C@@H](C)CC)C(=O)O)C(=O)O

What was measured:
Assay in all cases: cell-based or functional assay
human GIP receptor = biological target: T1, human GIP receptor
human glucagon receptor = human glucagon receptor (human, UniProt P47871 26-477)
Chain of human glucagon receptor (P47871 26-477): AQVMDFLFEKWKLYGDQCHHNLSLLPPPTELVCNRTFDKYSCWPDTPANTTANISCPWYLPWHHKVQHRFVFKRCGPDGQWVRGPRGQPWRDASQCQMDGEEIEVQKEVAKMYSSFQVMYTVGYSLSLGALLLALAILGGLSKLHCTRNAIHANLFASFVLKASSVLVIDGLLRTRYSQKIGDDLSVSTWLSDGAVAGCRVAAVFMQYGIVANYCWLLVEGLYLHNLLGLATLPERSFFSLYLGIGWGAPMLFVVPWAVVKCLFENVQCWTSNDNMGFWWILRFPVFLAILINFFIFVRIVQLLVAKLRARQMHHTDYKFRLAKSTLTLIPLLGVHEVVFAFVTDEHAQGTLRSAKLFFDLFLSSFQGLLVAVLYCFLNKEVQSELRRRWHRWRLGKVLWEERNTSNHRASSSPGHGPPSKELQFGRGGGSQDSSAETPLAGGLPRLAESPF

human GLP-1 receptor = human GLP-1 receptor (human, UniProt P43220 24-463)

| Binder | EC50 hGIP R (cAMP formation) (human GIP receptor) | EC50 hGlucagon R (cAMP formation) (human glucagon receptor) | EC50 hGLP-1R (cAMP formation) (human GLP-1 receptor) |
| --- | --- | --- | --- |
| B1 | 1.9 pM | 4.2 pM | 4.8 pM |
| B2 | 2.1 pM | 2.3 pM | 1.4 pM |
